In one series the test system is Cytivia cardiomyocytes. The series is described as follows: Doxorubicin-mediated cardiomyocyte damage (calcium, viability imaging). The series is classed as cell-based. The method, then:
Next, we sought to determine if inhibiting LOX1 could block doxorubicin-mediated cardiomyocyte damage. Cytivia™ cardiomyocytes were purchased from GE Healthcare and plated following manufacturer's instructions with the substitution of bovine fibronectin for human fibronectin. Cells were allowed to adhere for 4 days and then medium was changed. At days 5-7, medium was removed and cells were pre-incubated with the indicated concentration of LX5140110 for 4 hours prior to the addition of 5 μM doxorubicin (DOX). After addition of DOX, cells were incubated for a further 24 hours. After incubation, media was removed and cells were stained with DAPI (1:4000 dilution of 1 mg/mL), TOTO-3 (1 uL of dye solution per 1 mL of medium), and 5 μM Fluo-4. Cells were incubated for 1 hour at 37° C. and then imaged on Image on GE IN Cell Analyzer. Viability was determined by obtaining the number of cells excluding DAPI and TOTO-3 dyes while Fluo-4 was used to determine calcium concentrations. It is known that cardiomyocytes show an increase in calcium load during endotoxin induced cardiac dysfunction. (Thompson et al., Pediatric Research (2000) 47: 669-676).

Series [1] relates to Pan02.13 cells. Kind of series: Pan02.13 cell growth under standard tissue culture conditions. The series is classed as cell-based. The note with it: 100 ng/mL; P<0.001. The source says:
(§1) Given that chemotherapies and even some targeted therapies can enrich for CSCs despite the reductions in tumor burden, combination approaches using a CSC-specific targeted therapy in combination with these agents becomes an attractive approach to treatment of cancer patients. Since LX5140110 targets CSCs specifically, we sought to address the combined effects of the current standard of care chemotherapy for pancreatic cancer, gemcitabine, and LX5140110. First the ability of gemcitabine to inhibit the Pan02.13 was tested. Pan02.13 cells were plated under standard tissue culture conditions with and without 100 ng/mL gemcitabine in a tissue culture coated flat-bottomed plate (n=10). […] To determine the effects of treatments on CSCs, Pan02.13 was treated in standard tissue culture conditions for 4 days with either 50 μg/mL of LX5140110 or a control antibody and with or without 100 ng/mL of gemcitabine (GEM) then analyzed for the percentage of CSCs by flow cytometry. The percentage of CSCs (EpCAM+CD24+CD44+) was determined for each treatment condition. The cells were first gated for single, viable cells using scatter and DAPI. Fluorescence minus one (FMO) controls were utilized for gating, with the EpCAM+population analyzed for CD44 and CD24 expression.

In series [2] the test system is Pan02.13 cells. The series is described as follows: Percentage of CSCs (EpCAM+CD24+CD44+) in Pan02.13 by flow cytometry. The note with it: 4 days; for effect of single agent on percentage of CSCs: LX5140110 50 μg/mL or gemcitabine 100 ng/mL. The format is cell-based.
Source text: as §1

Series [3] deals with PA-0143 pancreatic PDX CSCs. The series is described as follows: Tumor sphere formation of pancreatic PDX model PA-0143. The series is classed as cell-based, human. The note with it: compared to STEM0268. The method, then:
DARPins showing the preferred binding patterns were screened for their ability to inhibit sphere formation using one of the pancreatic PDX models (PA-0143) used for selections. Briefly, following dissociation of the tumor cells they were plated in 96-well ultra-low attachment plates containing MSCGM with 50 ug/mL DARPins. All DARPins were tested in triplicate. After 4 days plates were read and inhibitory molecules were identified as showing inhibitory activity at least 1 standard deviation (SD) from the mean of the untreated and control DARPin-treated wells. A second assay based on expression of EZH2 in CSCs was also run. We have previously shown in pancreatic cancer that CSCs can be identified based on their high expression of EZH2 and trimethylation of histone 3 on lysine 27 (Van Vlerken L et al. 2013 EZH2 is required for breast and pancreatic cancer stem cell maintenance and can be used as a functional cancer stem cell reporter Stem Cells Transl Med 2(1):43-52). Using HPAC cells, the EZH2 assay was performed as previously described with the inclusion of 50 μg/mL DARPin. […]
STEM0268 inhibits cancer stem cells. […] Briefly, cells were dissociated using 200 units/mL of collagenase IV plated, washed counted and resuspended at 30,000 cells/mL in MSCGM (Lonza) and plated in an ultra-low attachment 6-well plate. […]

In series [4] the test system is PA-0165 pancreatic PDX CSCs. The series is described as follows: Tumor sphere formation of pancreatic PDX model PA-0165. The series is classed as cell-based, human. As to conditions: compared to STEM0268. How it is done: STEM0268 inhibits cancer stem cells. […] Briefly, cells were dissociated using 200 units/mL of collagenase IV plated, washed counted and resuspended at 30,000 cells/mL in MSCGM (Lonza) and plated in an ultra-low attachment 6-well plate. Antibodies were added to appropriate wells at 50 μg/mL. Following incubation for 4 days, spheres were harvested, dissociated and replated in a similar manner to generate secondary spheres and assess the ability of CSCs to self-renew. […] Salinomycin (1 μM) served as the positive control in both of these experiments (Gupta P B et al. 2009).

In another series the test system is pancreatic cell lines. The series is described as follows: Inhibition of CSCs in pancreatic cell lines. The series is classed as cell-based. As to conditions: multiple pancreatic cell lines. The text has this: To further confirm the ability of a LOX1 inhibitor to inhibit CSC sphere formation, a LOX1-specific monoclonal antibody (mAb), LX5140110, which comprises a VL comprising SEQ ID NO: 33 and a VH comprising SEQ ID NO: 4 (see, e.g., Table 1), was compared to STEM0268 for their ability to inhibit sphere formation in the pancreatic PDX models.

Another series has as its system colorectal cell lines. The series is described as follows: Inhibition of CSCs in colorectal cell lines. The series is classed as cell-based.
A further series deals with PA-0143 PDX tumors. Kind of series: In vivo study with PA-0143 PDX tumors. On the set-up: species or system NSG mice. The method, then: An in vivo study with PA-0143, was run to determine the ability of LX5140110 to inhibit CSCs in vivo. PA-0143 PDX tumors were passaged by trocar implantation of tumor fragments into 6-8 week old NSG mice (NOD.Cg-Prkdc^scid Il2rg^tmIWjl/SzJ) and allowed to grow to −300 mm^3 at which point they were randomized and treated with subcutaneous injections of either a control IgG1 mAb or LX5140110 at 30 mg/kg twice-weekly for 2 weeks (FIG. 8A). […] Twenty-four hours after the last dose of antibodies, tumors were removed from a subset of the mice and analyzed for the percentage of CSCs.

Where [5] appears, read: 50 μg/mL with 100 ng/mL gemcitabine.
The mark [6] stands for this setting: 4 hours pre-incubation before 5 μM DOX.

Take `COc1cccc2c1C(=O)c1c(O)c3c(c(O)c1C2=O)C[C@@](O)(C(=O)CO)C[C@@H]3O[C@H]1C[C@H](N)[C@H](O)[C@H](C)O1` [DOX, doxorubicin, reference compound]: the viability of cardiomyocytes result in the series with Cytivia cardiomyocytes (5 μM DOX, 24 hours) is “decreased viability”. For the same molecule, the “increase of calcium concentration” value with Cytivia cardiomyocytes (5 μM DOX, 24 hours, compared to untreated controls) is “approximately 2.5 fold”.
Take `Nc1ccn([C@@H]2O[C@H](CO)[C@@H](O)C2(F)F)c(=O)n1` [gemcitabine, reference compound]: the cell numbers entry in the series with Pan02.13 cells [1] is “significant reduction in cell numbers”. Moreover, the “effect of single agent on percentage of CSCs” value with Pan02.13 cells [2] is “enriched for CSCs”.

B1: LX5140110: LOX1-specific monoclonal antibody; VH SEQ ID NO: 4, VL SEQ ID NO: 33 (antibody, V domains shown)
VH: QVQLVQSGAEVKKPGASVKVSCKVSGYTLTELSMHWVRQAPGKGLEWMGGFDPEDFKYHTHQKFQGRVTMTEDTSTDTAYMELSSLRSEDTAVYYCALVWGTQGKGVRGWDYYYGMDVWGQGTTVTVSS
VL: QSVVTQPPSVSGAPGQRVTISCTGSSSNIGAGYDVHWYQQLPGTAPKLLIYGNSNRPSGVPDRFSGSKSGTSASLAITGLQAEDEADYYCQSYDSSLSGWVFGGGTKLTVL
modifications: LX5140110 Heavy Chain sequence; LX5140110 Light Chain sequence
On to B1, for which the “inhibition of sphere formation (in words)” value in series [3] was “inhibited sphere formation”. Also, the “inhibition of sphere formation (in words)” value in series [4] is listed as “inhibited sphere formation”. The “inhibition of CSCs” value in the series with pancreatic cell lines was “able to inhibit CSCs”. For the same molecule, the “inhibition of CSCs” value in the series on colorectal cell lines is recorded as “able to inhibit CSCs”. In the series with PA-0143 PDX tumors (30 mg/kg subcutaneous twice-weekly for 2 weeks, vs vehicle and control IgG1, P<0.001), the tumor growth result is reported as “only slightly reduced tumor growth”. Further, the “percentage of CSCs in tumors” value in the series with PA-0143 PDX tumors (24 hours after last dose, compared to vehicle control) is “significant reduction of CSCs”. Moreover, in the series with Pan02.13 cells [2] (setting [5]), the “effect on gemcitabine-induced enrichment of CSCs” value is reported as “inhibited this increase” and the “percentage of CSCs of viable cells” value was 0.62%. In the series with Pan02.13 cells [2], the “effect of single agent on percentage of CSCs” value is given as “slight reduction of CSCs”. In addition, in the series on Cytivia cardiomyocytes (setting [6]), the “effect on DOX-induced accumulation of calcium” value is “able to inhibit the accumulation of calcium” and the “effect on DOX-induced decrease of viability” value is given as “reversed”.

The values above are taken from patent publication US11192948B2, “Compositions and methods for inhibiting cancer stem cells” (MedImmune Limited, priority 2015, dated 2021).
